tested on: Escherichia coli TOP10; experiment: shrunken log2 fold change of peptide-encoding DNA abundance (4.5 h post-induction vs induction); higher = less antimicrobial activity (less host growth inhibition); details: time post-induction: 4.5 h; library: site-saturation at positions 5, 18, 19, 20
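Also: peptides expressed intracellularly from a pBAD plasmid library in pooled LB shake-flask culture, induced with 0.3% L-arabinose, DNA abundance read by NGS, three biological replicates, DESeq2 with apeglm shrinkage.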

RRIRPRPPRLPRPRPRPHPEPRP and RRIRWRPPRLPRPRPRPSTTPRP are within 0.2 log units of each other in “shrunken log2 fold change” value: 0.203 for the first, 0.221 for the second.

Going from RRIRMRPPRLPRPRPRPLQNPRP to RRIRMRPPRLPRPRPRPIPIPRP, the “shrunken log2 fold change” value falls from 1.2 to 0.138.

Compared with RRIRVRPPRLPRPRPRPLRDPRP, RRIRPRPPRLPRPRPRPWWLPRP is lower in “shrunken log2 fold change” value: 0.725 for the first, -0.0379 for the second.

First: RRIRDRPPRLPRPRPRPHFIPRP
Second: RRIRQRPPRLPRPRPRPSCYPRP
The “shrunken log2 fold change” value of the first is higher: -0.0922 for the first, -0.396 for the second.

First: RRIRWRPPRLPRPRPRPQLWPRP
Second: RRIRWRPPRLPRPRPRPNAIPRP
The “shrunken log2 fold change” value of the first is higher: 1.02 for the first, -0.123 for the second.

RRIRSRPPRLPRPRPRPLSWPRP and RRIRARPPRLPRPRPRPHCAPRP are within 0.2 log units of each other in “shrunken log2 fold change” value: 0.239 for the first, 0.149 for the second.

RRIRDRPPRLPRPRPRPEKWPRP and RRIRPRPPRLPRPRPRPSALPRP are within 0.2 log units of each other in “shrunken log2 fold change” value: -0.00325 for the first, -0.00612 for the second.

RRIRTRPPRLPRPRPRPDMRPRP and RRIRERPPRLPRPRPRPQLPPRP are within 0.2 log units of each other in “shrunken log2 fold change” value: -0.025 for the first, 0.021 for the second.

Compared with RRIRCRPPRLPRPRPRPFCDPRP, RRIRERPPRLPRPRPRPIWRPRP is higher in “shrunken log2 fold change” value: -0.501 for the first, 0.0579 for the second.

RRIRTRPPRLPRPRPRPIYRPRP and RRIRNRPPRLPRPRPRPIFQPRP are within 0.2 log units of each other in “shrunken log2 fold change” value: -0.0278 for the first, -0.0287 for the second.

First: RRIRYRPPRLPRPRPRPNMKPRP
Second: RRIRGRPPRLPRPRPRPRLKPRP
The “shrunken log2 fold change” value of the first is lower: -0.815 for the first, 0.777 for the second.

RRIRKRPPRLPRPRPRPMKEPRP and RRIRVRPPRLPRPRPRPWWHPRP are within 0.2 log units of each other in “shrunken log2 fold change” value: 0.0132 for the first, 0.0994 for the second.

RRIRFRPPRLPRPRPRPHDQPRP and RRIRVRPPRLPRPRPRPASYPRP are within 0.2 log units of each other in “shrunken log2 fold change” value: 0.0225 for the first, 0.0708 for the second.

RRIRFRPPRLPRPRPRPCGGPRP and RRIRNRPPRLPRPRPRPIMVPRP are within 0.2 log units of each other in “shrunken log2 fold change” value: 0.12 for the first, 0.00732 for the second.

First: RRIRRRPPRLPRPRPRPLIMPRP
Second: RRIRQRPPRLPRPRPRPKLSPRP
The “shrunken log2 fold change” value of the first is lower: -0.325 for the first, 0.00202 for the second.

RRIRKRPPRLPRPRPRPEGQPRP and RRIRMRPPRLPRPRPRPWYKPRP are within 0.2 log units of each other in “shrunken log2 fold change” value: 0.107 for the first, 0.00884 for the second.

First: RRIRLRPPRLPRPRPRPIRYPRP
Second: RRIRCRPPRLPRPRPRPTQVPRP
The “shrunken log2 fold change” value of the first is lower: -0.272 for the first, 0.0177 for the second.

First: RRIRQRPPRLPRPRPRPTPAPRP
Second: RRIRHRPPRLPRPRPRPSAYPRP
The “shrunken log2 fold change” value of the first is higher: 0.953 for the first, -0.562 for the second.

Going from RRIRRRPPRLPRPRPRPVSIPRP to RRIRGRPPRLPRPRPRPTRKPRP, the “shrunken log2 fold change” value rises from -0.0599 to 1.12.

First: RRIRDRPPRLPRPRPRPETLPRP
Second: RRIRSRPPRLPRPRPRPAGNPRP
The “shrunken log2 fold change” value of the first is higher: 0.452 for the first, -0.0422 for the second.

Going from RRIRNRPPRLPRPRPRPLVMPRP to RRIRGRPPRLPRPRPRPEVWPRP, the “shrunken log2 fold change” value rises from -0.126 to 1.58.

RRIRQRPPRLPRPRPRPRFTPRP and RRIRTRPPRLPRPRPRPSRPPRP are within 0.2 log units of each other in “shrunken log2 fold change” value: 0.184 for the first, 0.202 for the second.

RRIRGRPPRLPRPRPRPINQPRP and RRIRIRPPRLPRPRPRPMYRPRP are within 0.2 log units of each other in “shrunken log2 fold change” value: -0.0767 for the first, -0.0946 for the second.

RRIRMRPPRLPRPRPRPQKTPRP and RRIRNRPPRLPRPRPRPLRKPRP are within 0.2 log units of each other in “shrunken log2 fold change” value: -0.0249 for the first, -0.099 for the second.

Going from RRIRFRPPRLPRPRPRPCCRPRP to RRIRLRPPRLPRPRPRPEQQPRP, the “shrunken log2 fold change” value rises from -0.332 to 0.0529.

Going from RRIRRRPPRLPRPRPRPRDVPRP to RRIRGRPPRLPRPRPRPDDEPRP, the “shrunken log2 fold change” value rises from 0.328 to 1.27.

First: RRIRYRPPRLPRPRPRPYQNPRP
Second: RRIRLRPPRLPRPRPRPEVEPRP
The “shrunken log2 fold change” value of the first is lower: -0.467 for the first, 0.0199 for the second.

First: RRIRWRPPRLPRPRPRPHKAPRP
Second: RRIRCRPPRLPRPRPRPFPYPRP
The “shrunken log2 fold change” value of the first is higher: -0.000946 for the first, -0.645 for the second.

RRIRNRPPRLPRPRPRPKEPPRP and RRIRERPPRLPRPRPRPDFKPRP are within 0.2 log units of each other in “shrunken log2 fold change” value: 0.0169 for the first, 0.0659 for the second.

Going from RRIRPRPPRLPRPRPRPEPFPRP to RRIRQRPPRLPRPRPRPITVPRP, the “shrunken log2 fold change” value falls from 0.454 to -0.143.

Compared with RRIRGRPPRLPRPRPRPMDCPRP, RRIRARPPRLPRPRPRPWVEPRP is lower in “shrunken log2 fold change” value: 0.357 for the first, 0.151 for the second.

RRIRARPPRLPRPRPRPFRDPRP and RRIRDRPPRLPRPRPRPYFQPRP are within 0.2 log units of each other in “shrunken log2 fold change” value: -0.169 for the first, -0.236 for the second.

Going from RRIRKRPPRLPRPRPRPSNAPRP to RRIRFRPPRLPRPRPRPCFCPRP, the “shrunken log2 fold change” value falls from -0.154 to -0.453.

RRIRWRPPRLPRPRPRPLMSPRP and RRIRMRPPRLPRPRPRPYGYPRP are within 0.2 log units of each other in “shrunken log2 fold change” value: -0.0663 for the first, 0.0362 for the second.

RRIRKRPPRLPRPRPRPPGNPRP and RRIRMRPPRLPRPRPRPPNDPRP are within 0.2 log units of each other in “shrunken log2 fold change” value: 0.712 for the first, 0.574 for the second.

Going from RRIRSRPPRLPRPRPRPVIDPRP to RRIRYRPPRLPRPRPRPQLMPRP, the “shrunken log2 fold change” value falls from -0.26 to -0.509.

RRIRFRPPRLPRPRPRPVVCPRP and RRIRMRPPRLPRPRPRPCVDPRP are within 0.2 log units of each other in “shrunken log2 fold change” value: -0.0801 for the first, 0.0636 for the second.

Compared with RRIRLRPPRLPRPRPRPYIPPRP, RRIRRRPPRLPRPRPRPEPQPRP is higher in “shrunken log2 fold change” value: -0.669 for the first, 1.03 for the second.

RRIRQRPPRLPRPRPRPTFYPRP and RRIRRRPPRLPRPRPRPESIPRP are within 0.2 log units of each other in “shrunken log2 fold change” value: -0.116 for the first, -0.195 for the second.

RRIRRRPPRLPRPRPRPFVFPRP and RRIRNRPPRLPRPRPRPERHPRP are within 0.2 log units of each other in “shrunken log2 fold change” value: 0.274 for the first, 0.204 for the second.

Compared with RRIRMRPPRLPRPRPRPSWEPRP, RRIRNRPPRLPRPRPRPFEPPRP is lower in “shrunken log2 fold change” value: 0.302 for the first, -0.181 for the second.

First: RRIRNRPPRLPRPRPRPGPSPRP
Second: RRIRTRPPRLPRPRPRPFRYPRP
The “shrunken log2 fold change” value of the first is higher: 0.516 for the first, -0.0915 for the second.

RRIRIRPPRLPRPRPRPVVYPRP and RRIRHRPPRLPRPRPRPYGVPRP are within 0.2 log units of each other in “shrunken log2 fold change” value: -0.312 for the first, -0.256 for the second.

First: RRIRQRPPRLPRPRPRPMREPRP
Second: RRIRGRPPRLPRPRPRPERVPRP
The “shrunken log2 fold change” value of the first is lower: 0.0211 for the first, 0.397 for the second.

Compared with RRIRWRPPRLPRPRPRPFDVPRP, RRIRMRPPRLPRPRPRPGSIPRP is higher in “shrunken log2 fold change” value: -0.00233 for the first, 0.239 for the second.

First: RRIRCRPPRLPRPRPRPSEYPRP
Second: RRIRNRPPRLPRPRPRPFYSPRP
The “shrunken log2 fold change” value of the first is lower: -0.497 for the first, 0.0464 for the second.

RRIRRRPPRLPRPRPRPHLVPRP and RRIRERPPRLPRPRPRPMPMPRP are within 0.2 log units of each other in “shrunken log2 fold change” value: 0.127 for the first, -0.0464 for the second.

RRIRMRPPRLPRPRPRPRMCPRP and RRIRNRPPRLPRPRPRPSMTPRP are within 0.2 log units of each other in “shrunken log2 fold change” value: 0.0537 for the first, 0.0898 for the second.

Compared with RRIRERPPRLPRPRPRPLQLPRP, RRIRGRPPRLPRPRPRPNDGPRP is higher in “shrunken log2 fold change” value: -0.33 for the first, 0.0995 for the second.

Going from RRIRDRPPRLPRPRPRPPVPPRP to RRIRVRPPRLPRPRPRPAYQPRP, the “shrunken log2 fold change” value falls from 0.635 to -0.264.

Going from RRIRKRPPRLPRPRPRPRVMPRP to RRIRWRPPRLPRPRPRPAIYPRP, the “shrunken log2 fold change” value falls from 0.436 to -0.259.

RRIRNRPPRLPRPRPRPCDRPRP and RRIRGRPPRLPRPRPRPAPYPRP are within 0.2 log units of each other in “shrunken log2 fold change” value: 0.0883 for the first, 0.218 for the second.

RRIRPRPPRLPRPRPRPHRRPRP and RRIRARPPRLPRPRPRPFKYPRP are within 0.2 log units of each other in “shrunken log2 fold change” value: -0.0778 for the first, -0.0956 for the second.

Going from RRIRGRPPRLPRPRPRPSLFPRP to RRIRARPPRLPRPRPRPKKCPRP, the “shrunken log2 fold change” value falls from 0.442 to 0.0283.

In the case of RRIRFRPPRLPRPRPRPDIKPRP, the “shrunken log2 fold change” value is reported as -0.602.
